According to IntAct's records for PubMed 31515488:

B1: Phospholipid scramblase 4 (Homo sapiens), Q9NRQ2 (parent)
chain: MSGVVPTAPEQPAGEMENQTKPPDPRPDAPPEYNSHFLPGPPGTAVPPPTGYPGGLPMGYYSPQQPSTFPLYQPVGGIHPVRYQPGKYPMPNQSVPITWMPGPTPMANCPPGLEYLVQLDNIHVLQHFEPLEMMTCFETNNRYDIKNNSDQMVYIVTEDTDDFTRNAYRTLRPFVLRVTDCMGREIMTMQRPFRCTCCCFCCPSARQELEVQCPPGVTIGFVAEHWNLCRAVYSIQNEKKENVMRVRGPCSTYGCGSDSVFEVKSLDGISNIGSIIRKWNGLLSAMADADHFDIHFPLDLDVKMKAMIFGACFLIDFMYFERSPPQRSR
B2: Inositol monophosphatase 1 (Homo sapiens), P29218-1 (parent)
chain: MADPWQECMDYAVTLARQAGEVVCEAIKNEMNVMLKSSPVDLVTATDQKVEKMLISSIKEKYPSHSFIGEESVAAGEKSILTDNPTWIIDPIDGTTNFVHRFPFVAVSIGFAVNKKIEFGVVYSCVEGKMYTARKGKGAFCNGQKLQVSQQEDITKSLLVTELGSSRTPETVRMVLSNMEKLFCIPVHGIRSVGTAAVNMCLVATGGADAYYEMGIHCWDVAGAGIIVTEAGGVLMDVTGGPFDLMSRRVIAANNRILAERIAKEIQVIPLQRDDED
partner: B2 chain
B3: RUN and FYVE domain-containing protein 1 (Homo sapiens), Q96T51-2 (parent)
chain: MMEERANLMHMMKLSIKVLLQSALSLGRSLDADHAPLQQFFVVMEHCLKHGLKVKKSFIGQNKSFFGPLELVEKLCPEASDIATSVRNLPELKTAVGRGRAWLYLALMQKKLADYLKVLIDNKHLLSEFYEPEALMMEEEGMVIVGLLVGLNVLDANLCLKGEDLDSQVGVIDFSLYLKDVQDLDGGKEHERITDVLDQKNYVEELNRHLSCTVGDLQTKIDGLEKTNSKLQEELSAATDRICSLQEEQQQLREQNELIRERSEKSVEITKQDTKVELETYKQTRQGLDEMYSDVWKQLKEEKKVRLELEKELELQIGMKTEMEIAMKLLEKDTHEKQDTLVALRQQLEEVKAINLQMFHKAQNAESSLQQKNEAITSFEGKTNQVMSSMKQMEERLQHSERARQGAEERSHKLQQELGGRIGALQLQLSQLHEQCSSLEKELKSEKEQRQALQRELQHEKDTSSLLRMELQQVEGLKKELRELQDEKAELQKICEEQEQALQEMGLHLSQSKLKMEDIKEVNQALKGHAWLKDDEATHCRQCEKEFSISRRKHHCRNCGHIFCNTCSSNELALPSYPKPVRVCDSCHTLLLQRCSSTAS
partner: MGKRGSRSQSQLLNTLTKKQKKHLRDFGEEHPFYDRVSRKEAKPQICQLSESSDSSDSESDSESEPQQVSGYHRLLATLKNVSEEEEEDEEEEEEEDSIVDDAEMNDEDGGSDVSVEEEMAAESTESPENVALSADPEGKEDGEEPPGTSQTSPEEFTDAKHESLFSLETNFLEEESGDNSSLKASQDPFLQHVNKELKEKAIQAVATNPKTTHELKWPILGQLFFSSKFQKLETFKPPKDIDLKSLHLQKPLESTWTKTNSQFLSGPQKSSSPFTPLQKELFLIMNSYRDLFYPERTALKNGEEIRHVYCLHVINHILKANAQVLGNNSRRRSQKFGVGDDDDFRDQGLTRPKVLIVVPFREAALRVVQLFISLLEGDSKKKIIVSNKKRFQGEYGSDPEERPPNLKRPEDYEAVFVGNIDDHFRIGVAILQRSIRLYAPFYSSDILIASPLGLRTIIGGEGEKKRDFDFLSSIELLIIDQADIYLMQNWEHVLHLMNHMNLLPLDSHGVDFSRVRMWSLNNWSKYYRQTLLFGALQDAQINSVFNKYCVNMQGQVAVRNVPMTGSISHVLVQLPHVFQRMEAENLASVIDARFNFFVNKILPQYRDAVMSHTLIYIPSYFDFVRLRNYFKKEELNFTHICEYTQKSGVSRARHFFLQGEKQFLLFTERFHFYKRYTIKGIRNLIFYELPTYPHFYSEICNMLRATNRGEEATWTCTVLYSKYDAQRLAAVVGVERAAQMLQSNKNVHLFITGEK
B4: Sorting nexin-15 (Homo sapiens), Q9NRS6 (parent)
chain: MSRQAKDDFLRHYTVSDPRTHPKGYTEYKVTAQFISKKDPEDVKEVVVWKRYSDFRKLHGDLAYTHRNLFRRLEEFPAFPRAQVFGRFEASVIEERRKGAEDLLRFTVHIPALNNSPQLKEFFRGGEVTRPLEVSRDLHILPPPLIPTPPPDDPRLSQLLPAERRGLEELEVPVDPPPSSPAQEALDLLFNCESTEEASGSPARGPLTEAELALFDPFSKEEGAAPSPTHVAELATMEVESARLDQEPWEPGGQEEEEDGEGGPTPAYLSQATELITQALRDEKAGAYAAALQGYRDGVHVLLQGVPSDPLPARQEGVKKKAAEYLKRAEEILRLHLSQLPP

Variants of: B1
Conditions: with pls1_human PLSCR1, O15162
Chain of pls1_human PLSCR1, O15162 (O15162 whole entry): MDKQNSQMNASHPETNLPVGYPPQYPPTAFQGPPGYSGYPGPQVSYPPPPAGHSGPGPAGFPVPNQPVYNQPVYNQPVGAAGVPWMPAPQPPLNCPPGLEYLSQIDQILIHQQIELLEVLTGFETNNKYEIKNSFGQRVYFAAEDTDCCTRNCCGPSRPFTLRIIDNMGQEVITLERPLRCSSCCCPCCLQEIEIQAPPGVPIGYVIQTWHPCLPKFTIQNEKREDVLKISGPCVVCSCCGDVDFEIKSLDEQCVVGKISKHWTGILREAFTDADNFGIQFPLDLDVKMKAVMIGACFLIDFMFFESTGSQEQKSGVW

Row | effect of a mutation on the interaction | Variant
1 | with no effect | MSGVVPTAPEQPAGEMENQTKPPDPRPDAPPEYSSHFLPGPPGTAVPPPTGYPGGLPMGYYSPQQPSTFPLYQPVGGIHPVRYQPGKYPMPNQSVPITWMPGPTPMANCPPGLEYLVQLDNIHVLQHFEPLEMMTCFETNNRYDIKNNSDQMVYIVTEDTDDFTRNAYRTLRPFVLRVTDCMGREIMTMQRPFRCTCCCFCCPSARQELEVQCPPGVTIGFVAEHWNLCRAVYSIQNEKKENVMRVRGPCSTYGCGSDSVFEVKSLDGISNIGSIIRKWNGLLSAMADADHFDIHFPLDLDVKMKAMIFGACFLIDFMYFERSPPQRSR [N34S]

Variants of: B1
Conditions: with mtus2_human MTUS2, Q5JR59
Chain of mtus2_human MTUS2, Q5JR59 (Q5JR59 whole entry): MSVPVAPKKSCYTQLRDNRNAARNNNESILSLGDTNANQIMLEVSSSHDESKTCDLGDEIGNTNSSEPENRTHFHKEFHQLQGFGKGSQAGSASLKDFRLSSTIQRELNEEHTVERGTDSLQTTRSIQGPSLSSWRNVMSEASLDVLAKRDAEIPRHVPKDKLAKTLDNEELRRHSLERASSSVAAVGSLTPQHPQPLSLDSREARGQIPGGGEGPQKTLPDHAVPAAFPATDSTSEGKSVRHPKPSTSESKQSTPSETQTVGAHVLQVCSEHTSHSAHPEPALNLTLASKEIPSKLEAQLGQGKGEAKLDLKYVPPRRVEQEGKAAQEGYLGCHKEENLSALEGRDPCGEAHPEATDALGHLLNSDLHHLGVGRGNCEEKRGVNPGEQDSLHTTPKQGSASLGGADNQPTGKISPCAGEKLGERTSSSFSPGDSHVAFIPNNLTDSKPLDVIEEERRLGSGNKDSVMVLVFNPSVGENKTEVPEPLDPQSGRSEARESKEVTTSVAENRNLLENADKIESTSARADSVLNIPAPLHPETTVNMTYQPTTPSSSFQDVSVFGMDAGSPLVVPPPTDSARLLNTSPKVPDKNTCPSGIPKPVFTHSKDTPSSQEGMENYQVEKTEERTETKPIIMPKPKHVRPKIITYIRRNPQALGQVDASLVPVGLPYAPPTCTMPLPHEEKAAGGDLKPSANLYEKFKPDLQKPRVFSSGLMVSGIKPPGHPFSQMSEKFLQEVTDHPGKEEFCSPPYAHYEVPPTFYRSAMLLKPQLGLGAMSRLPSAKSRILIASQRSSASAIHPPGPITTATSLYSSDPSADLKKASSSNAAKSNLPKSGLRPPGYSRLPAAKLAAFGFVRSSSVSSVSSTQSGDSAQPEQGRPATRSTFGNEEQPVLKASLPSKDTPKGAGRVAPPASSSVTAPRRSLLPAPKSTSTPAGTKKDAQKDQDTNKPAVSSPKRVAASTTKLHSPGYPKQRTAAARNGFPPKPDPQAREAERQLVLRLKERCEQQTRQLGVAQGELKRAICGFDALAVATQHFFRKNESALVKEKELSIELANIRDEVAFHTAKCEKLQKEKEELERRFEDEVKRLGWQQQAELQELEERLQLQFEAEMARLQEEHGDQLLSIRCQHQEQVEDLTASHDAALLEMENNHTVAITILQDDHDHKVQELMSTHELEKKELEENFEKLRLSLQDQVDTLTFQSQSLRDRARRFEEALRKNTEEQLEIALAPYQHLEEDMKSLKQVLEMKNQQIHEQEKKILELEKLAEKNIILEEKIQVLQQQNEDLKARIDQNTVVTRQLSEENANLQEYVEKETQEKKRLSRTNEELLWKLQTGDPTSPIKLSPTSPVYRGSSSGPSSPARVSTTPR

Row | effect of a mutation on the interaction | Variant
2 | with no effect | MSGVVPTAPEQPAGEMENQTKPPDPRPDAPPEYSSHFLPGPPGTAVPPPTGYPGGLPMGYYSPQQPSTFPLYQPVGGIHPVRYQPGKYPMPNQSVPITWMPGPTPMANCPPGLEYLVQLDNIHVLQHFEPLEMMTCFETNNRYDIKNNSDQMVYIVTEDTDDFTRNAYRTLRPFVLRVTDCMGREIMTMQRPFRCTCCCFCCPSARQELEVQCPPGVTIGFVAEHWNLCRAVYSIQNEKKENVMRVRGPCSTYGCGSDSVFEVKSLDGISNIGSIIRKWNGLLSAMADADHFDIHFPLDLDVKMKAMIFGACFLIDFMYFERSPPQRSR [N34S]

Variants of: B1
Conditions: with nt2na_human NOTCH2NLA

Row | effect of a mutation on the interaction | Variant
3 | with no effect | MSGVVPTAPEQPAGEMENQTKPPDPRPDAPPEYSSHFLPGPPGTAVPPPTGYPGGLPMGYYSPQQPSTFPLYQPVGGIHPVRYQPGKYPMPNQSVPITWMPGPTPMANCPPGLEYLVQLDNIHVLQHFEPLEMMTCFETNNRYDIKNNSDQMVYIVTEDTDDFTRNAYRTLRPFVLRVTDCMGREIMTMQRPFRCTCCCFCCPSARQELEVQCPPGVTIGFVAEHWNLCRAVYSIQNEKKENVMRVRGPCSTYGCGSDSVFEVKSLDGISNIGSIIRKWNGLLSAMADADHFDIHFPLDLDVKMKAMIFGACFLIDFMYFERSPPQRSR [N34S]

Variants of: B2
Conditions: with impa1_human IMPA1, P29218

Row | effect of a mutation on the interaction | Variant
4 | with no effect | MADPWQECMDYAVTLARQAGEVVCEAIKNEMNVMLKSSPVDLVTATDQKVEKMLISSIKEKYPSHSFIGEESVAAGEKSILTDNPTWIIDPIDGTTNFVHRFPFVAVSIGFAVNKKIEFGVVYSCVEGKMYTARKGKGAFCNGQKLQVSQQEDITKSLLVTELSSSRTPETVRMVLSNMEKLFCIPVHGIRSVGTAAVNMCLVATGGADAYYEMGIHCWDVAGAGIIVTEAGGVLMDVTGGPFDLMSRRVIAANNRILAERIAKEIQVIPLQRDDED [G164S]

Variants of: B3
Conditions: with utp25_human UTP25, Q68CQ4

Row | effect of a mutation on the interaction | Variant
5 | with no effect | MMEERANLMHMMKLSIKVLLQSALSLGRSLDADHAPLQQFFVVMEHCLKHGLKVKKSFIGQNKSFFGPLELVEKLCPEASDIATSVRNLPELKTAVGRGRAWLYLALMQKKLADYLKVLIDNKHLLSEFYEPEALMMEEEGMVIVGLLVGLNVLDANLFLKGEDLDSQVGVIDFSLYLKDVQDLDGGKEHERITDVLDQKNYVEELNRHLSCTVGDLQTKIDGLEKTNSKLQEELSAATDRICSLQEEQQQLREQNELIRERSEKSVEITKQDTKVELETYKQTRQGLDEMYSDVWKQLKEEKKVRLELEKELELQIGMKTEMEIAMKLLEKDTHEKQDTLVALRQQLEEVKAINLQMFHKAQNAESSLQQKNEAITSFEGKTNQVMSSMKQMEERLQHSERARQGAEERSHKLQQELGGRIGALQLQLSQLHEQCSSLEKELKSEKEQRQALQRELQHEKDTSSLLRMELQQVEGLKKELRELQDEKAELQKICEEQEQALQEMGLHLSQSKLKMEDIKEVNQALKGHAWLKDDEATHCRQCEKEFSISRRKHHCRNCGHIFCNTCSSNELALPSYPKPVRVCDSCHTLLLQRCSSTAS [C159F]

Variants of: B4
Conditions: with reep6_human REEP6, Q96HR9
Chain of reep6_human REEP6, Q96HR9 (Q96HR9 whole entry): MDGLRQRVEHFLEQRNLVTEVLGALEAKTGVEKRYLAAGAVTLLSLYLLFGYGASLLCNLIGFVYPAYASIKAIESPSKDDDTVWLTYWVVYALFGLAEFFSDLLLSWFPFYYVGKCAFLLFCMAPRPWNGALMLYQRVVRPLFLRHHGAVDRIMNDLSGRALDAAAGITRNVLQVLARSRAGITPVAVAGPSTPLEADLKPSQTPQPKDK

Row | effect of a mutation on the interaction | Variant
6 | with no effect | MSRQAKDDFLRHYTVSDPRTHPKGYTEYKVTAQFISKKDPEDVKEVVVWKRYSDFRKLHGDLAYTHRNLFRRLEEFPAFPRAQVFGRFEASVIEERRKGAEDLLRFTVHIPALNNSPQLKEFFRGGEVTRPLEVSRDLHILPPPLIPTPPPDDPRLSQLLPAERRGLEELEVPVDPPPSSPAQEALDLLFNCESTEEASGSPARGPLTEAELALFDPFSKEEGAAPSPTHVAELATMEVESARLDQEPWEPGGQEEEEDGEGGPTPAYLSQATELITQALRDEKAGAYAAALQGYRDGVHVLLQGVPSDPLPARQEGVKKKAAEYLKRAEEILCLHLSQLPP [R334C]
7 | with no effect | MSRQAKDDFLRHYTVSDPRTHPKGYTEYKVTAQFISKKDPEDVKEVVVWKRYSDFRKLHGDLAYTHRNLFRRLEEFPAFPRAQVFGRFEASVIEERRKGAEDLLRFTVHIPALNNSPQLKEFFRGGEVTRPLEVSRDLHILPPPLIPTPPPDDPRLSQLLPAERRGLEELEVPVDPPPSSPAQEALDLLFNCESTEEASGSPARGPLTEAELALFDPFSKEEGAAPSPTHVAELATMEVESARLDQEPWEPGGQEEEEDGEGGPTPAYLSQATELITQALRDEKAGAYAAALQGYRDGVHVLLQGVPSDPLPACQEGVKKKAAEYLKRAEEILRLHLSQLPP [R314C]

Variants of: B4
Conditions: with ar6p1_human ARL6IP1, Q15041
Chain of ar6p1_human ARL6IP1, Q15041 (Q15041 whole entry): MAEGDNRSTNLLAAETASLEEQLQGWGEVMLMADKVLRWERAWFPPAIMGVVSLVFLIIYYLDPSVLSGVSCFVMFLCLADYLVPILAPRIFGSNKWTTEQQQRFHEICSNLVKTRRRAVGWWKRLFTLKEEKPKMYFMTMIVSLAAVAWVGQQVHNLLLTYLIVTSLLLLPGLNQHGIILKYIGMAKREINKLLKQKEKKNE

Row | effect of a mutation on the interaction | Variant
8 | with no effect | MSRQAKDDFLRHYTVSDPRTHPKGYTEYKVTAQFISKKDPEDVKEVVVWKRYSDFRKLHGDLAYTHRNLFRRLEEFPAFPRAQVFGRFEASVIEERRKGAEDLLRFTVHIPALNNSPQLKEFFRGGEVTRPLEVSRDLHILPPPLIPTPPPDDPRLSQLLPAERRGLEELEVPVDPPPSSPAQEALDLLFNCESTEEASGSPARGPLTEAELALFDPFSKEEGAAPSPTHVAELATMEVESARLDQEPWEPGGQEEEEDGEGGPTPAYLSQATELITQALRDEKAGAYAAALQGYRDGVHVLLQGVPSDPLPARQEGVKKKAAEYLKRAEEILCLHLSQLPP [R334C]
9 | with no effect | MSRQAKDDFLRHYTVSDPRTHPKGYTEYKVTAQFISKKDPEDVKEVVVWKRYSDFRKLHGDLAYTHRNLFRRLEEFPAFPRAQVFGRFEASVIEERRKGAEDLLRFTVHIPALNNSPQLKEFFRGGEVTRPLEVSRDLHILPPPLIPTPPPDDPRLSQLLPAERRGLEELEVPVDPPPSSPAQEALDLLFNCESTEEASGSPARGPLTEAELALFDPFSKEEGAAPSPTHVAELATMEVESARLDQEPWEPGGQEEEEDGEGGPTPAYLSQATELITQALRDEKAGAYAAALQGYRDGVHVLLQGVPSDPLPACQEGVKKKAAEYLKRAEEILRLHLSQLPP [R314C]
